Results taken from US20200123264A1 (Regeneron, published 2020).

T1: full-length human LEPR on IMR-32/STAT3-Luc/hLEPR cells (human, UniProt P48357 22-1165)
T1 sequence (looked up): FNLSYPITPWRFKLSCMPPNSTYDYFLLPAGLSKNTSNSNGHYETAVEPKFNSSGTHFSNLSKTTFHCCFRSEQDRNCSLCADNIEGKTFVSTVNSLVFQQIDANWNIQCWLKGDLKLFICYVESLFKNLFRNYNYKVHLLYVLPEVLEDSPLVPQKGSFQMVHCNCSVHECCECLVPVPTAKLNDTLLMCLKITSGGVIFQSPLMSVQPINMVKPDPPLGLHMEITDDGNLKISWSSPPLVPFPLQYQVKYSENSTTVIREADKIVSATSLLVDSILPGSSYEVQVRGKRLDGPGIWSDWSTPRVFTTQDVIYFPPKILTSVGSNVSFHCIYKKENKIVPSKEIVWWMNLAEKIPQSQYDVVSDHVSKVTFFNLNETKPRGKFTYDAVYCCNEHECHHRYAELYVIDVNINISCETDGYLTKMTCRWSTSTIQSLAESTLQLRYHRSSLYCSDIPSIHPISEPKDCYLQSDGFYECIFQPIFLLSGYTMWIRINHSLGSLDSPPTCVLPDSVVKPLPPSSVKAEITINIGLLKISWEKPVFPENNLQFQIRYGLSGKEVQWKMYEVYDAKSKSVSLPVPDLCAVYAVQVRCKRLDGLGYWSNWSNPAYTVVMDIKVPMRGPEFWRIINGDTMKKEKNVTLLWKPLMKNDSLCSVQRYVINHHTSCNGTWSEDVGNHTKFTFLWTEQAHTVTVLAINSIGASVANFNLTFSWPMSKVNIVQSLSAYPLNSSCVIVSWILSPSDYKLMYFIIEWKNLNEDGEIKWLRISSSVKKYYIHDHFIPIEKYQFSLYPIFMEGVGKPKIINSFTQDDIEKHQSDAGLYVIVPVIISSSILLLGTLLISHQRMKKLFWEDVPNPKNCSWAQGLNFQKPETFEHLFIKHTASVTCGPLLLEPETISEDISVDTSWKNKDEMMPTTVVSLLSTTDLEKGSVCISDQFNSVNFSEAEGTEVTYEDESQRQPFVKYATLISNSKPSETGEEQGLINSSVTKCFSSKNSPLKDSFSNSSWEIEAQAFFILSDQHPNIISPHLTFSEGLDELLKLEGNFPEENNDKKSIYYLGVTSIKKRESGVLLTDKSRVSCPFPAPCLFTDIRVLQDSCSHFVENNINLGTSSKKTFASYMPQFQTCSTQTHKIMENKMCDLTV

T2: human LEPR CRH1 (D1,D2)-MMH (human, UniProt P48357 22-339, limits assumed)
T2 construct: domain: CRH1 (D1,D2); Transiently expressed, captured from supernatant on anti-myc beads
T2 sequence (looked up): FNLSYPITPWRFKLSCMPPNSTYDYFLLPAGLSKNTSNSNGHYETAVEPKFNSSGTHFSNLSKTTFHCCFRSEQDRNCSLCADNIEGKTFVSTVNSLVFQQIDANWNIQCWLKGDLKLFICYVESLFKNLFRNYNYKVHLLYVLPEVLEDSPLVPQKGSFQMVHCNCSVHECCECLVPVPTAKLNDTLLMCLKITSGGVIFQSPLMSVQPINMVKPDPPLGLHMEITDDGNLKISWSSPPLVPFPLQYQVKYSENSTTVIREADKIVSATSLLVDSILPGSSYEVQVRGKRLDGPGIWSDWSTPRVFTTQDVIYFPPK

T3: human LEPR CRH1 (D1,D2,D3)-MMH (human, UniProt P48357 22-427, limits assumed)
T3 construct: domain: CRH1-Ig (D1,D2,D3); Transiently expressed, captured from supernatant on anti-myc beads; also called CRH1-Ig (D1, D2, D3)
T3 sequence (looked up): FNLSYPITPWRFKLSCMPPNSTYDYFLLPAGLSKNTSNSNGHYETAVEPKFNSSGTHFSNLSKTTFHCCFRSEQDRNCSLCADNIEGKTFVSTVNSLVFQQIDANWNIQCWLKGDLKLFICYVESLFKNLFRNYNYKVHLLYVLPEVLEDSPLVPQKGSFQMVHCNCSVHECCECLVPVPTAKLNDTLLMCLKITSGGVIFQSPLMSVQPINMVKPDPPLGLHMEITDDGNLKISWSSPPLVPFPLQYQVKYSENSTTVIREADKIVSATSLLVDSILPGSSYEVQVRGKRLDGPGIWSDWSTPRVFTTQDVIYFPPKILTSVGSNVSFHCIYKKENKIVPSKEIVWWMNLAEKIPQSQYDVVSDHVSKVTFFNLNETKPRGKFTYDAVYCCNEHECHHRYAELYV

T4: human LEPR Ig (D3)-MMH (human, UniProt P48357 340-427, limits assumed)
T4 construct: domain: Ig (D3); Transiently expressed, captured from supernatant on anti-myc beads
T4 sequence (looked up): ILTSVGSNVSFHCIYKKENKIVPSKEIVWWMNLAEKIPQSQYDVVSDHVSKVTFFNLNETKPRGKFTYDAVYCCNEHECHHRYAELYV


Columns and labels:
[1] = biological target: T1, full-length human LEPR on …; experiment: cell-based or functional assay
[2] = biological target: T5, recombinant human LEPR extracellular domain expressed with a C-terminal myc-myc-hexahistidine tag (human, UniProt P48357 22-839); experiment: Luminex, myc-captured LEPR protein on beads, Ab 0.5 µg/mL
T5 construct: Monomeric construct; also called hLEPR.MMH; hLEPR-MMH
Protocol: (§1) Aliquots of microspheres with immobilized anti-myc monoclonal antibodies, prepared as described above, were added individually to 1 mL of the each of these protein supernatants. The microspheres were gently mixed, incubated for two hours at 25° C., washed twice with 1 mL of DBPS, centrifuged to remove the supernatant and finally resuspended in 1 mL of DPBS buffer. Forty eight μL of anti-myc IgG coupled microspheres from individual reactions with full length human LEPR and with each of the human LEPR domain proteins were withdrawn and mixed together in 3.6 mL of PBS+20 mg/mL BSA+0.05% sodium azide (blocking buffer).
(§2) From this mixed pool, 75 μL of microspheres were plated per well on a 96 well filter plate (Millipore, Cat. No: MSBVN1250) and mixed with 25 μL of individual anti-human LEPR monoclonal antibodies (0.5 or 5 μg/mL), incubated for two hours at 25° C. and then washed twice with 200 μL of DPBS with 0.05% Tween 20 (washing buffer). […] After 30 minutes, the samples were washed twice with 200 μL of washing buffer and resuspended in 150 μL of wash buffer. The Median Fluorescence intensity (MFI) of the microspheres was measured in a Luminex Analyzer.

[3] = biological target: T2, human LEPR CRH1 (D1,D2)-MMH; experiment: as above
Protocol: as §1, §2

[4] = biological target: T3, human LEPR CRH1 (D1,D2,D3)-MMH; experiment: as above
Protocol: as §1, §2

[5] = biological target: T4, human LEPR Ig (D3)-MMH; experiment: as above
Protocol: as §1, §2

| % inhibition, IMR-32/LEPR with 200 pM human Leptin [1] | IC50 (M), IMR-32/LEPR with 200 pM human Leptin [1] | % activation, IMR-32/LEPR without human Leptin [1] | Binder | also measured |
| --- | --- | --- | --- | --- |
| 100% | 7.23e-10 M |  | H4H18457P2 (antibody, human IgG4, V domains shown, H4H prefix: human IgG4 Fc) VH: EVQLVESGGSVVRPGESLRLSCAASGFTFDDYGMSWVRQAPGKGLEWVSGISWNGGITVYADSVKGRFTVSRDNAKNSLYLQMNSLRAEDTALYHCARARYGGADYWGQGTLVTVSS VL: not shown |  |
| 100% | 2.9e-09 M | 6% | H4H18464P2 (antibody, human IgG4, V domains shown, H4H prefix: human IgG4 Fc) VH: QVQLVQSGPEVKKPGASVKVSCKGSGYTFSWYGISWIRQAPGHGLEWMGWISASSGNTRFAQKVQGRLTMTTDTSTSTAYMELRSLRSDDTAVYYCARTGTRPFDYWGQGTLVTVSS VL: not shown | EC50 (M), IMR-32/LEPR without human Leptin (STAT3-Luc) [1]: 1.3e-10 M |
|  |  | 4% | H4H18440P2 (antibody, human IgG4, V domains shown, H4H prefix: human IgG4 Fc) VH: QVQLVESGGGMVKPGGSLRLSCAASGFTFSDYYMSWIRQAPGKGLEWISHISITGSTIYYADSVKGRFTISRDNAKNSLYLEMNRLRDEDTAVYYCTRDEPDIVLVRYGMDVWGQGTTVTVSS VL: not shown |  |
|  |  |  | H4H18462P2 (antibody, human IgG4, V domains shown, H4H prefix: human IgG4 Fc) VH: EVQLVESGGDLVQPGRSLRLSCAASGFTFSSFAMSWVRQAPGRGLEWVSSLSDSGDNTYYADSVKGRFTISRDNSKNTLYLQMNNLRAEDTAVYYCAKDLFSGWLFHGFDVWGQGTMVTVSS VL: not shown | Luminex MFI [2]: 3610 MFI; Luminex MFI [3]: 665 MFI; Luminex MFI [4]: 461 MFI; Luminex MFI [5]: 10 MFI |
